This note sets out measurements from patent US20040198648A1.

Where only a bound is given, the exact number is not on record here.

This assay has as its target human insulin receptor (IR), overexpressed in rat fibroblasts (HIRc B cells) (human) (UniProt P06213). Description: cell-based or functional assay.

Consider “recombinant human AHSG (α2-Heremans Schmid Glycoprotein) (from UniProt P02765 19-367)”, for which the insulin-induced IR autophosphorylation in intact HIRc B cells, rhAHSG at 1.8 µM is > 50%.
